Measured values from patent publication US20250353921A1 (ASTRIA THERAPEUTICS, published 2025).
Where “and” joins values, the source holds several entries; their conditions need not be identical. Equal entries are not always repeated.

Assays:
[1] = molecular target: T1, Human OX40 (Acro Biosystems, catalog NO: OXO-H5224) protein (human, UniProt P43489 29-216); experiment: SPR Biacore 8K+
T1 construct: Bought protein; also called recombinant human OX40 receptor; recombinant human OX40 protein
T1 sequence: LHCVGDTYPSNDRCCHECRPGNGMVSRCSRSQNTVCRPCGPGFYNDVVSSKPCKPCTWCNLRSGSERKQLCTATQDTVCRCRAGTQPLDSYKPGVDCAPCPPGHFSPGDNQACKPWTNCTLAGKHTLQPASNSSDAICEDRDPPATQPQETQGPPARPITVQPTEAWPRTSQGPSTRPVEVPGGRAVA

[2] = molecular target: T2, human OX40 (TNFRSF4, CD134) on cells (human, UniProt P43489 29-277); experiment: cell-based or functional assay
T2 sequence: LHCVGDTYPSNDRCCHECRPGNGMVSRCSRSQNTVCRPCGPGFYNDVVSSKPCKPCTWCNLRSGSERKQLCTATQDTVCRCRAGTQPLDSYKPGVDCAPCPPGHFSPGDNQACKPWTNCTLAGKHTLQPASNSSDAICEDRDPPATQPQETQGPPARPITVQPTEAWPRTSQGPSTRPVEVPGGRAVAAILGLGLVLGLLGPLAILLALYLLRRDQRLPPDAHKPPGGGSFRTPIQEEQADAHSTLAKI

[3] = molecular target: T2, human OX40 (TNFRSF4, CD134) on cells; experiment: cell-based or functional assay; remark: listed apart in the source
[4] = molecular target: T2, human OX40 (TNFRSF4, CD134) on cells; experiment: cell-based or functional assay; remark: listed apart in the source
[5] = molecular target: T2, human OX40 (TNFRSF4, CD134) on cells; experiment: cell-based or functional assay; remark: listed apart in the source
[6] = molecular target: T2, human OX40 (TNFRSF4, CD134) on cells; experiment: cell-based or functional assay; remark: listed apart in the source
human OX40-CRD-avi-his [7] = molecular target: T3, human OX40-CRD-avi-his (human, UniProt P43489 29-170, limits assumed); experiment: SPR Biacore T200, ratio of KD values
T3 construct: Only the CRD region of the ECD was used
T3 sequence: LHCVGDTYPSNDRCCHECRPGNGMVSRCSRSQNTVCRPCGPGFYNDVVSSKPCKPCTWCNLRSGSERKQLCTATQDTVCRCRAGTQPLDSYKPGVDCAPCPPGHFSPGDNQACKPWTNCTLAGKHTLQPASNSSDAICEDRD

cynomolgus OX40-ECD-his [8] = molecular target: T4, cynomolgus OX40-ECD-his (cynomolgus); experiment: SPR Biacore T200, ratio of KD values
T4 construct: extracellular domain; also called Cyno OX40

human OX40-CRD-avi-his [9] = molecular target: T3, human OX40-CRD-avi-his; experiment: SPR Biacore T200, IgG captured by anti-human antibody, antigen as analyte, 1:1 Langmuir
cynomolgus OX40-ECD-his [10] = molecular target: T4, cynomolgus OX40-ECD-his; experiment: as above
[11] = molecular target: T2, human OX40 (TNFRSF4, CD134) on cells; experiment: flow cytometry on Jurkat-NFκB (OX40) cells, detection with anti-human IgG Fc-AF647
[12] = molecular target: T1, Human OX40 (Acro Biosystems, catalog …); experiment: SPR Biacore 8K+, single cycle kinetics, antibody captured by anti-human Fc, OX40 analyte, pH 7.4, 25 °C
[13] = molecular target: T2, human OX40 (TNFRSF4, CD134) on cells; experiment: flow cytometry on Jurkat-NF-κB-OX40 cells, detection with PE anti-human IgG Fc, occupancy in % of the saturating dose; in the presence of 5 µg/ml OX40L; time point not stated on the sheet
[14] = molecular target: T5, Human CD16a (176F), Sino Biological 10389-H08H (human, UniProt P08637 17-208); experiment: SPR Biacore 8K+, ratio of KD values
T5 construct: also called FcγRIIIa176F

[15] = molecular target: T6, Human CD16b (NA2 allotype), Sino Biological 11046-H08H (human, UniProt O75015 17-200); experiment: SPR Biacore 8K+, ratio of KD values
T6 construct: also called FcγRIIIb

[16] = molecular target: T7, Human (hu) OX40 protein (Example 5 cross reactivity) (human, UniProt P43489 29-216, limits assumed); experiment: SPR Biacore 8K+, single cycle kinetics, MAB10 captured by anti-human Fc, OX40 analyte
T7 construct: whole entry named
T7 sequence: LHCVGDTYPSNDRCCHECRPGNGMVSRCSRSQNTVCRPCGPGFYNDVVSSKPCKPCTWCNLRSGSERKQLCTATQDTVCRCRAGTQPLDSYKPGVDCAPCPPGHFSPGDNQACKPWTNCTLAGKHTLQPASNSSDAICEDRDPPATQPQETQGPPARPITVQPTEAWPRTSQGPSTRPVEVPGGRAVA

[17] = molecular target: cynomolgus monkey (cy) OX40 protein (Example 5) (cynomolgus monkey); experiment: as above
rabbit (rb) OX40 protein = molecular target: T8, rabbit (rb) OX40 protein (rabbit); experiment: as above
T8 construct: also called Rabbit OX40

cynomolgus OX40-ECD-his [18] = molecular target: T4, cynomolgus OX40-ECD-his; experiment: SPR, affinity for the extracellular domain (ECD) of cynomolgus monkey OX40
human OX40-CRD-avi-his [19] = molecular target: T3, human OX40-CRD-avi-his; experiment: SPR, affinity for the extracellular domain (ECD) of human OX40; lower end of the range
[20] = molecular target: T2, human OX40 (TNFRSF4, CD134) on cells; experiment: flow cytometry on OX40-expressing HPB-ALL cells; cells pre-incubated with cold GBR 830, washed, then stained with a single dose of the competitor MAB1-AF647

T6 sequence (O75015 17-200 N65S limits assumed): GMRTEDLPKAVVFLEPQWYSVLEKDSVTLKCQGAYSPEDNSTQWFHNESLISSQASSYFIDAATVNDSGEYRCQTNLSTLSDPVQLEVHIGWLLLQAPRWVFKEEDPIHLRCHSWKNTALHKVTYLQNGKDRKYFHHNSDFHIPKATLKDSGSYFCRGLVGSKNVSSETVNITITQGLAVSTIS
T5 sequence (P08637 17-208 limits assumed): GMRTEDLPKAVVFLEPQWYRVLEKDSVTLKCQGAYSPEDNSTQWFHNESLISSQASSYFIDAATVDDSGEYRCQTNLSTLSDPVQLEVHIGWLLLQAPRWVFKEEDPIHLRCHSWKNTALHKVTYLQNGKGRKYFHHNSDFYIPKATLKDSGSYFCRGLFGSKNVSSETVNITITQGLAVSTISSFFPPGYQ

B1: MAB1 IgG1 (antibody)
heavy: not shown
light: EIVLTQSPATLSLSPGERATLSCRASSSVSYMHWYQQKPGQAPRPWIYATSNRATGIPARFSGSGSGTDYTLTISSLEPEDFAVYYCQQFGAWPWTFGQGTKVEIKRTVAAPSVFIFPPSDEQLKSGTASVVCLLNNFYPREAKVQWKVDNALQSGNSQESVTEQDSKDSTYSLSSTLTLSKADYEKHKVYACEVTHQGLSSPVTKSFNRGEC
notes: Human IgG1, kappa
B1 was tested, and the “fold increase in binding affinity against GBR830” value [1] was 8 fold, the “fold decrease in ADCC of activated T cells against KHK4083” value [2] was 3 fold and the “average proliferation index (Av), coated T cell agonism assay” value [3] was 0.97. For the same binder, the “EC50, inhibition of T cell proliferation” value [4] was 0.17 nM and 0.24 ug/ml, the “Fold change to GBR 830, proliferation EC50” value [4] was 33 fold and the “ADCC EC50, activated T cells” value [5] was 0.026 nM and 0.004 ug/ml. The “Fold Change to GBR 830, ADCC EC50, activated T cells” value [5] was 3.25 fold, the “ADCC EC50, in vitro differentiated Tregs” value [6] was 0.089 nM and 0.015 µg/mL and the “Fold Change to GBR 830, ADCC EC50, Tregs” value [6] was 74 fold. The “fold increase in affinity (KD GBR 830 / KD MAB1)” value (human OX40-CRD-avi-his [7]) was 13.4 fold, the “fold increase in affinity (KD GBR 830 / KD MAB1)” value (cynomolgus OX40-ECD-his [8]) was 5.5 fold and the Kd (human OX40-CRD-avi-his [9]) was 6 nM. For the same binder, the koff (human OX40-CRD-avi-his [9]) was 0.00163 s⁻¹, the kon (human OX40-CRD-avi-his [9]) was 274000 M⁻¹ s⁻¹ and the Kd (cynomolgus OX40-ECD-his [10]) was 557 nM. For the same binder, the koff (cynomolgus OX40-ECD-his [10]) was 0.0405 s⁻¹, the kon (cynomolgus OX40-ECD-his [10]) was 72700 M⁻¹ s⁻¹ and the “EC50 (read off the curve)” value [11] was roughly 0.09 µg/mL. For the same binder, the Kd [12] was 6.8 nM, the koff [12] was 0.0016 s⁻¹ and the kon [12] was 230000 M⁻¹ s⁻¹. The “EC50 (read off the curve)” value [13] was roughly 0.4 nM.

B2: MAB10 (antibody, human IgG1, kappa)
heavy: QVTLKESGPALVKPTQTLTLTCSFSGFSLSTSGMGVGWIRQPPGKALEWIAHIWWDDDKYYNTALKTRLTISKDTSKNQVVLTMTNMDPVDTATYYCARIDWDGFAYWGQGTLVTVSSASTKGPSVFPLAPSSKSTSGGTAALGCLVKDYFPEPVTVSWNSGALTSGVHTFPAVLQSSGLYSLSSVVTVPSSSLGTQTYICNVNHKPSNTKVDKKVEPKSCDKTHTCPPCPAPELLGGPSVFLFPPKPKDTLYITREPEVTCVVVDVSHEDPEVKFNWYVDGVEVHNAKTKPREEQYNSTYRVVSVLTVLHQDWLNGKEYKCKVSNKALPAPIEKTISKAKGQPREPQVYTLPPSRDELTKNQVSLTCLVKGFYPSDIAVEWESNGQPENNYKTTPPVLDSDGSFFLYSKLTVDKSRWQQGNVFSCSVMHEALHNHYTQKSLSLSPGK
light: EIVLTQSPATLSLSPGERATLSCRASSSVSYMHWYQQKPGQAPRPWIYATSNRATGIPARFSGSGSGTDYTLTISSLEPEDFAVYYCQQFGAWPWTFGQGTKVEIKRTVAAPSVFIFPPSDEQLKSGTASVVCLLNNFYPREAKVQWKVDNALQSGNSQESVTEQDSKDSTYSLSSTLTLSKADYEKHKVYACEVTHQGLSSPVTKSFNRGEC
notes: MAB1 with M252Y, S254T and T256E (EU numbering) in the IgG1 Fc; also called MAB1 Heavy Chain + YTE
For B2, the “fold increase in binding affinity against GBR830” value [1] was 8 fold, the “EC50 (inhibition) of NFκB signaling, Jurkat-NFκB-OX40 cells, 0.07 µg/mL OX40L” value [2] was 0.79 nM and the “EC50 (inhibition) of NFκB signaling, Jurkat-NFκB-OX40 cells, 5 µg/mL OX40L” value [2] was 4.59 nM. The “fold-change of KD relative to MAB1” value [14] was 3 fold, the “fold-change of KD relative to MAB1” value [15] was 4.3 fold and the Kd [16] was 6.7 nM. For the same binder, the koff [16] was 0.0021 s⁻¹, the kon [16] was 300000 M⁻¹ s⁻¹ and the Kd [17] was 268 nM. It also gave a koff [17] of 0.052 s⁻¹, a kon [17] of 200000 M⁻¹ s⁻¹ and a Kd (rabbit (rb) OX40 protein) of 3300 nM. For the same binder, the koff (rabbit (rb) OX40 protein) was 0.03 s⁻¹, the kon (rabbit (rb) OX40 protein) was 9000 M⁻¹ s⁻¹ and the Kd [12] was 7.2 nM. For the same binder, the koff [12] was 0.0016 s⁻¹, the kon [12] was 230000 M⁻¹ s⁻¹ and the “EC50 (read off the curve)” value [13] was roughly 0.7 nM.

B3: GBR 830 (telazorlimab) (antibody, human IgG1, kappa)
heavy: not shown
light: EIVLTQSPATLSLSPGERATLSCRASSSVSYMHWYQQKPGQAPRPWIYATSNRATGIPARFSGSGSGTDYTLTISSLEPEDFAVYYCQQWSSNPWTFGQGTKVEIKRTVAAPSVFIFPPSDEQLKSGTASVVCLLNNFYPREAKVQWKVDNALQSGNSQESVTEQDSKDSTYSLSSTLTLSKADYEKHKVYACEVTHQGLSSPVTKSFNRGEC
notes: IgG1; also called Antibody 830; ISB830
For B3, the “average proliferation index (Av), coated T cell agonism assay” value [3] was 0.98, the “EC50, inhibition of T cell proliferation” value [4] was 5.67 nM and 0.833 ug/ml and the “ADCC EC50, activated T cells” value [5] was 0.078 nM and 0.13 ug/ml. For the same binder, the “ADCC EC50, in vitro differentiated Tregs” value [6] was 0.833 nM and 0.121 µg/mL, the Kd (cynomolgus OX40-ECD-his [18]) was 5000 nM and 3000 nM and the Kd (human OX40-CRD-avi-his [9]) was 80.4 nM. The koff (human OX40-CRD-avi-his [9]) was 0.00654 s⁻¹, the kon (human OX40-CRD-avi-his [9]) was 81300 M⁻¹ s⁻¹ and the Kd (cynomolgus OX40-ECD-his [10]) was 3040 nM. The “EC50 (read off the curve)” value [11] was roughly 0.3 µg/mL, the Kd (human OX40-CRD-avi-his [19]) was 80 nM and the Kd [12] was 59.3 nM. For the same binder, the koff [12] was 0.0086 s⁻¹, the kon [12] was 150000 M⁻¹ s⁻¹ and the “IC50 (read off the curve)” value [20] was roughly 0.2 µg/mL.
